Experimental data published in patent US20240158517A1 (HIFIBIO HK, published 2024).
One block for each binder: values may come before it.

Legend:
human CXCR5 [1] = molecular target: T1, human CXCR5 (human, UniProt P32302 1-372); test: binding to hCXCR5, Exp 2 (assay not given)
T1 construct: whole, on cells; Always presented on cells; one entry is used for all cell lines; also called hCXCR5; C-X-C chemokine receptor type 5
T1 sequence (looked up): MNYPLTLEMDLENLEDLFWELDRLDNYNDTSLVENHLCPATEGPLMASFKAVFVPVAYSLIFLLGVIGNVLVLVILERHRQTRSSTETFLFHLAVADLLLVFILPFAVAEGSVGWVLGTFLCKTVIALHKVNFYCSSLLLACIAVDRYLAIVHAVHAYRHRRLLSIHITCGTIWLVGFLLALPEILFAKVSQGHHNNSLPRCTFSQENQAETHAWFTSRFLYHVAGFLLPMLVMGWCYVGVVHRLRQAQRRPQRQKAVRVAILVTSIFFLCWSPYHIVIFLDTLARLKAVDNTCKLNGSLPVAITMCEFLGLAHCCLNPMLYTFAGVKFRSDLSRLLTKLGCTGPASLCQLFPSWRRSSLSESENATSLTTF

human CXCR5 [2] = molecular target: T1, human CXCR5; test: binding to hCXCR5, Exp 1 (assay not given)
human CXCR5 [3] = molecular target: T1, human CXCR5; test: flow cytometry on adherent DX002 cells expressing CXCR5, MFI
human CXCR5 [4] = molecular target: T1, human CXCR5; test: binding to DX002 cells expressing CXCR5
human CXCR5 [5] = molecular target: T1, human CXCR5; test: flow cytometry on Raji cells, binding percentage, antibody at 1 nM and 0.1 nM
Description: Binding properties of these 36 humanized variants were tested in binding assay to Raji cells at two different concentrations, 1 nM and 0.1 nM.

human CXCR3 = molecular target: T2, human CXCR3 (human, UniProt P49682 1-368, limits assumed); test: flow cytometry (MFI) on hCXCR3
T2 construct: also called hCXCR3
T2 sequence (looked up): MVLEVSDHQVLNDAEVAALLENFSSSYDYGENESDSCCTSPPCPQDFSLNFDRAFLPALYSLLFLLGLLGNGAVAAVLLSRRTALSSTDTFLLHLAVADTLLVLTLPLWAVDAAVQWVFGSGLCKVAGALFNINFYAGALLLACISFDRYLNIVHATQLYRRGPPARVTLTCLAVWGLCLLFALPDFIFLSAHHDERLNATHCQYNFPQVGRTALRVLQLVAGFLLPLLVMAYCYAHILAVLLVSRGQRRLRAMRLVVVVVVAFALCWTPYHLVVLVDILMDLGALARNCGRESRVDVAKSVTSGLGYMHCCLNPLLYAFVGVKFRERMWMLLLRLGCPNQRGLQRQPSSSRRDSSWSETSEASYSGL

murine CXCR5 = molecular target: T3, murine CXCR5 (mouse, UniProt Q04683 1-374); test: flow cytometry on cells transiently transfected with murine CXCR5
T3 construct: whole, on cells; also called mouse CXCR5 ortholog
T3 sequence (looked up): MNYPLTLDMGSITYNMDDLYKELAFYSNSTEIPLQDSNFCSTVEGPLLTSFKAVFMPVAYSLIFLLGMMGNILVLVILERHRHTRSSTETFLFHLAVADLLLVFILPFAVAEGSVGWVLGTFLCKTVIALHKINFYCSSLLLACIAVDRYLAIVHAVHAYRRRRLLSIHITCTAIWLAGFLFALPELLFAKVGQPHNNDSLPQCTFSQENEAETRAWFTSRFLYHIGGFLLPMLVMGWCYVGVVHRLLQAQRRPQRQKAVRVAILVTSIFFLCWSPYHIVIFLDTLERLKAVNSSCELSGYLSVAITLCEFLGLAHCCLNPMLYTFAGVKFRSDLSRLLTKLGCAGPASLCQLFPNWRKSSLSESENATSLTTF

human CXCR5 [6] = molecular target: T1, human CXCR5; test: flow cytometry on an adherent stable cell line expressing hCXCR5, MFI normalized on the benchmark MFI
Description: In order to test the binding capacity to CXCR5, six chimeric monoclonal antibodies were tested in binding assay using adherent stable cell line expressing the target antigen hCXCR5.

B1: HFB2-4hz14-hG1DE (antibody, V domains shown)
VH: QVQLQESGPGLVKPSETLSLTCTVSGFSLTSYGVSWVRQPPGKGLEWIGVIWGDGSTNYNPSLKSRVTISKDTSKNQVSLKLSSVTAADTAVYYCARVVYWGQGTLVTVSS
VL: DIVMTQSPLSLPVTPGEPASISCRSSQSLLHSNGYNYLYWFLQKPGQSPQLLIYRGSNRASGVPDRFSGSGSGTDFTLKISRVEAEDVGVYYCMQHLQYPYTFGGGTKVEIK
notes: Humanized (VH3/VL1b), human IgG1 with S239D/I332E (hG1DE)
- EC50 (human CXCR5 [1]): 0.1 nM
- EC50 (human CXCR5 [2]): 0.4 nM

B2: HFB2-4hz12-hG1DE (antibody, V domains shown)
VH: QVQLQESGPGLVKPSETLSLTCTVSGFSLTSYGVSWVRQPPGKGLEWIGVIWGDGSTNYNPSLKSRVTISKDTSKNQVSLKLSSVTAADTAVYYCARVVYWGQGTLVTVSS
VL: DIQMTQSPSSLSASVGDRVTITCRSSKSLLHSNGKTYLYWFQQKPGKAPKLLIYRMSNLASGVPSRFSGSGSGTDFTLTISSLQPEDFATYYCMQHLEYPYTFGGGTKVEIK
notes: Humanized (VH3/VL4), human IgG1 with S239D/I332E (hG1DE); also called HFB2-4hz12hIgDE
- EC50 (human CXCR5 [1]): 0.3 nM
- EC50 (human CXCR5 [2]): 1.2 nM

B3: HFB2-4hz38hG1DE (antibody, V domains shown)
VH: QVQLQESGPGLVKPSETLSLTCTVSGFSLTSYGVSWVRQPPGKGLEWIGVIWGDGSTNYNPSLKSRVTISKDTSKNQVSLKLSSVTAADTAVYYCARVVYWGQGTLVTVSS
VL: DIVMTQSPDSLAVSLGERATINCRSSKSLLHSNGKTYLYWFQQKPGQSPKLLLYRMSNLASGVPDRFSGSGSGTDFTLTISSLQAEDVAVYYCMQHLEYPYTFGQGTKLEIK
notes: Humanized (VH3/VL7) in hG1DE format
- EC50 (human CXCR5 [3]): 0.0878 nM
- EC50 (human CXCR5 [4]): 0.106 nM

B4: HFB2-4hz37hG1DE (antibody, V domains shown)
VH: QVQLQESGPGLVKPSETLSLTCTVSGFSLTSYGVSWVRQPPGKGLEWIGVIWGDGSTNYNPSLKSRVTISKDTSKNQVSLKLSSVTAADTAVYYCARVVYWGQGTLVTVSS
VL: EIVMTQSPATLSVSPGERATLSCRSSKSLLHSNGKTYLYWFQQKPGQAPRLLIYRMSNLASGIPARFSGSGSGTEFTLTISSVQSEDVAVYYCMQHLEYPYTFGQGTKLEIK
notes: Humanized (VH3/VL6) produced in hG1DE format (human IgG1, S239D/I332E)
- EC50 (human CXCR5 [3]): 0.0785 nM
- EC50 (human CXCR5 [4]): 0.099 nM

B5: HFB2-VH6VL7 (antibody, V domains shown)
VH: QVQLQESGPGLVKPSGTLSLTCAVSGFSLTSYGVSWVRQPPGKGLEWIGVIWGDGSTNYNPSLKSRLTISKDKSKNQVSLKLSSVTAADTAVYYCARVVYWGQGTLVTVSS
VL: DIVMTQSPDSLAVSLGERATINCRSSKSLLHSNGKTYLYWFQQKPGQSPKLLLYRMSNLASGVPDRFSGSGSGTDFTLTISSLQAEDVAVYYCMQHLEYPYTFGQGTKLEIK
- binding result (human CXCR5 [5]): binds

B6: HFB2-VH6VL4 (antibody, V domains shown)
VH: QVQLQESGPGLVKPSGTLSLTCAVSGFSLTSYGVSWVRQPPGKGLEWIGVIWGDGSTNYNPSLKSRLTISKDKSKNQVSLKLSSVTAADTAVYYCARVVYWGQGTLVTVSS
VL: DIQMTQSPSSLSASVGDRVTITCRSSKSLLHSNGKTYLYWFQQKPGKAPKLLIYRMSNLASGVPSRFSGSGSGTDFTLTISSLQPEDFATYYCMQHLEYPYTFGGGTKVEIK
- binding result (human CXCR5 [5]): binds

B7: HFB2-4hz39hG1DE (antibody, V domains shown)
VH: QVQLQESGPGLVKPSGTLSLTCAVSGFSLTSYGVSWVRQPPGKGLEWIGVIWGDGSTNYNPSLKSRLTISKDKSKNQVSLKLSSVTAADTAVYYCARVVYWGQGTLVTVSS
VL: EIVMTQSPATLSVSPGERATLSCRSSKSLLHSNGKTYLYWFQQKPGQAPRLLIYRMSNLASGIPARFSGSGSGTEFTLTISSVQSEDVAVYYCMQHLEYPYTFGQGTKLEIK
notes: Humanized (VH6/VL6) in hG1DE format
- EC50 (human CXCR5 [3]): 0.232 nM
- EC50 (human CXCR5 [4]): 0.26 nM

B8: HFB2-4hz15-hG1DE (antibody, V domains shown)
VH: QVQLQESGPGLVKPSETLSLTCTVSGFSLTSYGVSWVRQPPGKGLEWIGVIWGDGSTNYNPSLKSRVTISKDTSKNQVSLKLSSVTAADTAVYYCARVVYWGQGTLVTVSS
VL: DIVMTQSPLSLPVTPGEPISLSCRSSKSLLHSNGKTYLYWFLQKPGQSPQLLLYRMSNLASGVPDRFSGSGSGTDFTLKISRVEAEDVGVYYCMQHLEYPYTFGGGTKLEIK
notes: Humanized (VH3/VL1c), human IgG1 with S239D/I332E (hG1DE)
- EC50 (human CXCR5 [1]): 0.05 nM
- EC50 (human CXCR5 [2]): 0.6 nM

B10: HFB2-VH10VL7 (antibody, V domains shown)
VH: QVQLVQSGAEVKKPGASVKVSCKASGFSLTSYGVSWVRQAPGQGLEWMGVIWGDGSTNYAQKLQGRVTMTKDTSTSTAYMELRSLRSDDTAVYYCARVVYWGQGTLVTVSS
VL: DIVMTQSPDSLAVSLGERATINCRSSKSLLHSNGKTYLYWFQQKPGQSPKLLLYRMSNLASGVPDRFSGSGSGTDFTLTISSLQAEDVAVYYCMQHLEYPYTFGQGTKLEIK
- binding result (human CXCR5 [5]): binds

B11: HFB2-VH8VL4 (antibody, V domains shown)
VH: QVQLVESGGGVVQPGRSLRLSCAVSGFSLTSYGVSWVRQAPGKGLEWLGVIWGDGSTNYHSGLISRLTISKDNSKNTVYLQMNSLRAEDTAVYYCARVVYWGQGTLVTVSS
VL: DIQMTQSPSSLSASVGDRVTITCRSSKSLLHSNGKTYLYWFQQKPGKAPKLLIYRMSNLASGVPSRFSGSGSGTDFTLTISSLQPEDFATYYCMQHLEYPYTFGGGTKVEIK
- binding result (human CXCR5 [5]): binds

Results, then the binder that gave them:

- binding result (human CXCR3): no binding (tested: about 150 nM)
- binding result (murine CXCR5): no binding (tested: about 150 nM)
- EC50 (human CXCR5 [6]): 0.5 nM
B9: HFB2-6-hG1 (antibody, V domains shown)
VH: QIQLQQSGPELVEPGASVKLSCKASGYTFTDYTIHWVKQSPGQGLEWIGWIYPGSGNIKYNDKFKGKATMTADKSSSTAYMQLSSLTSEDSAVYFCARGLRREFAYWGQGTLVTVSA
VL: DIVMTQAAFSNPVTLGTSASISCRSSKSLLHSNGITYLYWYLQKPGQSPQLLIYQMSNLASGVPDRFSSSGSGTDFTLRISRVEAEDVGVYYCAQSLELPLTFGAGTKLELK
notes: Mouse-human chimeric antibody, human IgG1 constant region

- binding result (human CXCR5 [5]): binds
B12: HFB2-VH8VL6 (antibody, V domains shown)
VH: QVQLVESGGGVVQPGRSLRLSCAVSGFSLTSYGVSWVRQAPGKGLEWLGVIWGDGSTNYHSGLISRLTISKDNSKNTVYLQMNSLRAEDTAVYYCARVVYWGQGTLVTVSS
VL: EIVMTQSPATLSVSPGERATLSCRSSKSLLHSNGKTYLYWFQQKPGQAPRLLIYRMSNLASGIPARFSGSGSGTEFTLTISSVQSEDVAVYYCMQHLEYPYTFGQGTKLEIK

- binding result (human CXCR5 [5]): binds
B13: HFB2-VH10VL4 (antibody, V domains shown)
VH: QVQLVQSGAEVKKPGASVKVSCKASGFSLTSYGVSWVRQAPGQGLEWMGVIWGDGSTNYAQKLQGRVTMTKDTSTSTAYMELRSLRSDDTAVYYCARVVYWGQGTLVTVSS
VL: DIQMTQSPSSLSASVGDRVTITCRSSKSLLHSNGKTYLYWFQQKPGKAPKLLIYRMSNLASGVPSRFSGSGSGTDFTLTISSLQPEDFATYYCMQHLEYPYTFGGGTKVEIK

- binding result (human CXCR5 [5]): binds
B14: HFB2-4hz41hG1 (antibody, V domains shown)
VH: QVQLVESGGGVVQPGRSLRLSCAVSGFSLTSYGVSWVRQAPGKGLEWLGVIWGDGSTNYHSGLISRLTISKDNSKNTVYLQMNSLRAEDTAVYYCARVVYWGQGTLVTVSS
VL: DIVMTQSPDSLAVSLGERATINCRSSKSLLHSNGKTYLYWFQQKPGQSPKLLLYRMSNLASGVPDRFSGSGSGTDFTLTISSLQAEDVAVYYCMQHLEYPYTFGQGTKLEIK
notes: Humanized, human IgG1 (hG1); also called HFB2-VH8VL7

- binding result (human CXCR3): no binding (tested: about 150 nM)
- binding result (murine CXCR5): no binding (tested: about 150 nM)
- EC50 (human CXCR5 [6]): 0.924 nM
B15: HFB2-4-hG1 (antibody, V domains shown)
VH: QVQLKESGPGLVAPSQSLSITCTVSGFSLTSYGVSWVRQPPGKGLEWLGVIWGDGSTNYHSGLISRLSISKDNSKSQVFLKLNSLQSDDTATYYCARVVYWGQGTLVTVSA
VL: DIVMTQAAPSVPVTPGESISISCRSSKSLLHSNGKTYLYWFLQRPGQSPQLLLYRMSNLASGVPDRFSGSGSGTAFTLRISRVEAEDVGVYYCMQHLEYPYTFGGGTKLEIK
notes: Mouse-human chimeric antibody, human IgG1 constant region; also called parental
